{
  "source": "patent US20150218551A1",
  "target": "LR1-C1 envelope protein (Env variant of HIV-1 AC10) on virions (HIV-1)",
  "experiment": "virion capture assay: virions titrated on plates coated with 4E10, bound virus measured by p24 ELISA; reference AC10 wild-type virions",
  "data": [
    {"substance": "4E10 antibody", "values": [
      {"measurement": "fold increase in affinity against the AC10 wild-type variant", "result": 4, "unit": "fold"}
    ]}
  ]
}
